In patent publication US20100092974A1, “METHODS FOR SCREENING FOR MODULATORS OF CCRL2” (The Board of Trustees of the Leland Stanford Junior …, priority 2008, published 2010):

How the values were obtained:
mCCRL2 [1] = target: T1, mCCRL2 (Mus musculus, UniProt O35457); assay: chemerin binding/anti-mCCRL2 mAb displacement on peritoneal mast cells (flow cytometry); conditions: 1000 nM
T1 construct: The coding regions of mCCRL2, huCCRL2, mCRTH2, and huCCR10 were amplified from genomic DNA; expressed in transfected cells
T1 sequence (O35457 1-360): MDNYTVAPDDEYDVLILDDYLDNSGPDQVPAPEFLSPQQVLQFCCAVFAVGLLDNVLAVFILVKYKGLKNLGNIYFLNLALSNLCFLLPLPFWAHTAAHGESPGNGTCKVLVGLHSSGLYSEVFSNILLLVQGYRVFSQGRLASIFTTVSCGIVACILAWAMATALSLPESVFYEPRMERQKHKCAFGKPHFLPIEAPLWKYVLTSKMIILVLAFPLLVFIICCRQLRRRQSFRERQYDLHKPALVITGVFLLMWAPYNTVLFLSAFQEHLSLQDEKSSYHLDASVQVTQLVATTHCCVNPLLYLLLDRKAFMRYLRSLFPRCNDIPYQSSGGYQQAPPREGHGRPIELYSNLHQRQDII

mCCRL2 [2] = target: T1, mCCRL2; assay: intracellular calcium mobilization, CCRL2/HEK293 transfectants; assay type: cell-based; conditions: HEK293 background, alone or in combination
Protocol: Chemoattractant-stimulated Ca^2+-mobilization was performed following Alliance for Cell Signaling protocol ID PP00000210. Cells (3×10^6/mL) were loaded with 4 μM Fluo4-AM and 0.16% Pluronic acid F-127 (Molecular Probes) in modified Iscove's medium (Iscove's medium with 1% heat inactivated bovine calf serum and 2 mM L-glutamine, Invitrogen) for 30 minutes at 37° C. The samples were mixed every 10 minutes during loading, washed once, resuspended at up to 2×10^6/mL in the same buffer, and allowed to rest in the dark for 30 minutes at room temperature. Chemoattractant-stimulated change in Ca^2+-sensitive fluorescence of Fluo-4 was measured over real-time with a FACsScan flow cytometer and CellQuest software (BD Biosciences) at room temperature under constant stirring (500 rpm). Fluorescent data were acquired continuously up to 1024 seconds at 1-second intervals. The samples were analyzed for 45 seconds to establish basal state, removed from the nozzle to add the stimuli, and then returned to the nozzle. Mean channel fluorescence over time was analyzed with FlowJo (TreeStar, Ashland, Oreg., USA) software. […] 500 μl of these chemerin-loaded cells were added to mCMKLR1/L1.2 cells loaded with Fluo4-AM, and calcium mobilization was evaluated.

mCCRL2 [3] = target: T1, mCCRL2; assay: in vitro transwell chemotaxis, mCCRL2/L1.2 transfectants; assay type: cell-based
Protocol: For migration experiments using cell lines, 2.5×10^5 cells/100 μl chemotaxis media (RPMI+10% fetal calf serum) were added to the top wells of 5-um pore transwell inserts (Costar, Corning, N.Y., USA), and test samples in 600 μl media were added to the bottom wells. After incubating the transwell plates for 1.5 hours at 37° C., the bottom wells were harvested and flow cytometry was used to assess migration. For primary cell chemotaxis, 1×10^6 cells/100 μl were added to the top well, and, following a 2 hour incubation at 37° C., polystyrene beads (15.0 μm diameter, Polysciences, Warrington, Pa., USA) were added to each well to facilitate normalization of the cell count. The cells were then stained for c-kit, F4/80, and/or CD11b expression and analyzed by flow cytometry. A ratio was generated and percent input migration was calculated.

[4] = target: T2, mouse CMKLR1 (chemokine-like receptor 1), untagged (mouse, UniProt P97468 1-371); assay: radioligand competition on L1.2 transfectants
T2 construct: whole, on cells; also called mCMKLR1; mCMKLR1/L1.2
T2 sequence (looked up): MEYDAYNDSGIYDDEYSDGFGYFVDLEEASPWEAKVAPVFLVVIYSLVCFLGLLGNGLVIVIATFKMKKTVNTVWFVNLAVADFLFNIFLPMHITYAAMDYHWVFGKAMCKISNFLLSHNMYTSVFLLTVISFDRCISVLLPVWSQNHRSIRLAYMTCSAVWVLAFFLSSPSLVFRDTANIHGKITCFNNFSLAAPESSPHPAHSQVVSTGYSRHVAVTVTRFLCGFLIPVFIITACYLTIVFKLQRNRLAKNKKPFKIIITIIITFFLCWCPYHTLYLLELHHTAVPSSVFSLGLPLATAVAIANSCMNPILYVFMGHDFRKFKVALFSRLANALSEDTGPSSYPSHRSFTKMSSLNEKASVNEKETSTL

[5] = target: T2, mouse CMKLR1 (chemokine-like receptor …); assay: radioligand competition on L1.2 transfectants; displaces 125I-chemerin 21-148; 9-mer peptide … on CMKLR1
[6] = target: T2, mouse CMKLR1 (chemokine-like receptor …); assay: radioligand competition on L1.2 transfectants, 125I-chemerin 21-148 displaced by the peptide … [panel B, legend box]
[7] = target: T3, mouse CCRL2 (chemokine (CC motif) receptor-like 2), untagged (mouse, UniProt O35457 1-360); assay: flow cytometry; chemerin inhibits staining of mouse peritoneal mast cells by the competitor anti-mCCRL2 BZ5B8; chemerin blocks anti-mCCRL2 mAb staining of mouse peritoneal mast cells
T3 construct: whole, on cells; also called mCCRL2; mCCRL2/L1.2
T3 sequence (looked up): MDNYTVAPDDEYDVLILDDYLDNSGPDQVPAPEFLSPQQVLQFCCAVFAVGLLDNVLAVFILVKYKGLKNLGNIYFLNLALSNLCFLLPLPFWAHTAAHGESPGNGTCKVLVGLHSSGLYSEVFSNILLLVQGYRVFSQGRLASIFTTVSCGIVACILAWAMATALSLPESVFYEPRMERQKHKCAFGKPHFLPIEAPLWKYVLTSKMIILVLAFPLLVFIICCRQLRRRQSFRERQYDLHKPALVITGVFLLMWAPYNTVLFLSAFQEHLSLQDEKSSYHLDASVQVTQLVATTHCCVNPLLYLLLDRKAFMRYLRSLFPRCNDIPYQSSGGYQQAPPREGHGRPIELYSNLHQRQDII

“CCL2: chemokine purchased from R&D Systems” was tested. Which “effect on CCRL2 staining” value (mCCRL2 [1]) did it give?
Its value is “no effect”.

And the “agonism, intracellular calcium mobilization” value (mCCRL2 [2])?
The value was “neither CCL2 nor chemerin functioned as agonists”.

What about the “synergy of CCL2 and chemerin in transwell migration” value (mCCRL2 [3]; CCL2 with chemerin) of the same molecule?
Its value is “did not synergize”.

And the transwell migration (mCCRL2 [3]; range of doses, CXCL12 and CCL19 act via endogenous CXCR4 and CCR7)?
The transwell migration was “did not induce migration”.

B1: bioactive 9-mer carboxyl-terminal chemerin peptide (residues 149-157) (peptide)
peptide: YFPGQFAFS
notes: Synthetic peptide; also called bioactive chemerin peptide
Which “fold less potent (against chemerin protein)” value [4] does the source give for B1 here?
The value was 10 fold.

What about the EC50 [5] of the same molecule?
The EC50 was 26.2 nM.

And the EC50 [6]?
Its EC50 is 29 nM.

B2: human chemerin (as used to block anti-mCCRL2 staining, FIG. 6 Panel A) (ligand, UniProt Q99969 21-157, looked up)
chain: ELTEAQRRGLQVALEEFHKHPPVQWAFQETSVESAVDTPFPAGIFVRLEFKLQQTSCRKRDWKKPECKVRPNGRKRKCLACIKLGSEDKVLGRLVHCPIETQVLREAEEHQETQCLRVQRAGEDPHSFYFPGQFAFS
Which EC50 [7] does the source give for B2 here?
The EC50 was 21 nM.
